System: K4 kissing-loop RNA reporter
Assay: apparent KD of K4 kissing-loop reporter; higher = weaker reporter binding
Settings: Eterna round: R107
Protocol: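 RNA-MaP round R107: designed RNA switches with theophylline, tryptophan, arginine or FMN aptamers are transcribed on-chip within common flanks. They are titrated with a labelled K4 kissing-loop RNA reporter in RNA-MaP buffer (100 mM Tris pH 7.5, 80 mM KCl, 4 mM MgCl2), without ligand or with the indicated ligand. Median apparent KD per design.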

[1] = input ligand: theophylline 20 uM
[2] = input ligand: tryptophan 2.4 mM
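Note: bound reporter read as fluorescence of individual clusters on recovered sequencing chips by microscopy, with normalized cluster intensities fitted with a binding model.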

Question: Which results are given for “GAUAUAGUGAUGUUAUAUGGGAAGGAGUUACGAGGACCGGUACGGCCGCCACUCGAAACGAGUGAGGAUUUGGGAGAUUGGGUUU [SSTryptA.R]”?
Answer: apparent KD of K4 kissing-loop reporter (input ligand: FMN 200 uM): 369 nM; apparent KD of K4 kissing-loop reporter (input ligand: arginine 13.2 mM): 386 nM; apparent KD of K4 kissing-loop reporter (input ligand: none): 376 nM; apparent KD of K4 kissing-loop reporter [1]: 488 nM; apparent KD of K4 kissing-loop reporter [2]: 235 nM

Question: Which “apparent KD of K4 kissing-loop reporter” value (input ligand: FMN 200 uM) does the source give for “GAUCUGAACGAAAGUUCGGAUCAGUCCGAUACCAGUAUGGAUUCAUACCCUUGGCAGCGGAAAUCUGCUAUGGAGUGAUGUUCCA [Theophylline A K4 14]” here?
Answer: The value was 532 nM.

Question: What about the “apparent KD of K4 kissing-loop reporter” value (input ligand: arginine 13.2 mM) of the same sequence?
Answer: Its value is 328 nM.

Question: And the “apparent KD of K4 kissing-loop reporter” value (input ligand: none)?
Answer: The value was 379 nM.

Question: What about the “apparent KD of K4 kissing-loop reporter” value [1] of the same sequence?
Answer: The value was 418 nM.

Question: What about the “apparent KD of K4 kissing-loop reporter” value [2] of the same sequence?
Answer: The value was 391 nM.

Question: What does the source list for “GAUGAACUAUUCGAUACCAGACUACAUGAGUGAUGUUCAUGUGUGUCAAUGUCUAUGUCAGUCCCUUGGCAGCGAAUAGUUUAUC [KL-XTheo-B27]”?
Answer: apparent KD of K4 kissing-loop reporter (input ligand: FMN 200 uM): 146 nM; apparent KD of K4 kissing-loop reporter (input ligand: arginine 13.2 mM): 108 nM; apparent KD of K4 kissing-loop reporter (input ligand: none): 125 nM; apparent KD of K4 kissing-loop reporter [1]: 141 nM; apparent KD of K4 kissing-loop reporter [2]: 125 nM

Question: What does the source list for “GAUUCAGUGAUGUUGGAAGGCGAGCGGGAUACCAGCCAAGACUCAGGCCCUUGGCAGCCCACAUAUCCCACGUAGAUAGUAGCUC [Same State - Theophylline A (Freestyle 13)]”?
Answer: apparent KD of K4 kissing-loop reporter (input ligand: FMN 200 uM): 230 nM; apparent KD of K4 kissing-loop reporter (input ligand: arginine 13.2 mM): 104 nM; apparent KD of K4 kissing-loop reporter (input ligand: none): 147 nM; apparent KD of K4 kissing-loop reporter [1]: 134 nM; apparent KD of K4 kissing-loop reporter [2]: 142 nM

Question: “GAUUCAGUGAUGUUGGAAGGCGAGCGGGAUACCAGCCAAGACUCAGGCCCUUGGCAGCCCACAUAUCCCAGGUAGAUAGUAGCUC [Same State - Theophylline A (Freestyle 12)]” was tested. Which “apparent KD of K4 kissing-loop reporter” value (input ligand: FMN 200 uM) did it give?
Answer: Its value is 168 nM.

Question: And the “apparent KD of K4 kissing-loop reporter” value (input ligand: arginine 13.2 mM)?
Answer: Its value is 111 nM.

Question: And the “apparent KD of K4 kissing-loop reporter” value (input ligand: none)?
Answer: The value was 142 nM.

Question: What about the “apparent KD of K4 kissing-loop reporter” value [1] of the same sequence?
Answer: Its value is 146 nM.

Question: What about the “apparent KD of K4 kissing-loop reporter” value [2] of the same sequence?
Answer: Its value is 132 nM.

Question: How did the “apparent KD of K4 kissing-loop reporter” value (input ligand: FMN 200 uM) turn out when “GCAGACACGCAGUGAUGUUGCGAAACGGAAGGAGCGCGUGAAAACGCAGGUAGGUCGCCGACACAUUAAUUAUAAUUUUGUUUGC [Arginine A K4 15]” was run?
Answer: Its value is 279 nM.

Question: And the “apparent KD of K4 kissing-loop reporter” value (input ligand: arginine 13.2 mM)?
Answer: Its value is 241 nM.

Question: What about the “apparent KD of K4 kissing-loop reporter” value (input ligand: none) of the same sequence?
Answer: The value was 270 nM.

Question: What about the “apparent KD of K4 kissing-loop reporter” value [1] of the same sequence?
Answer: The value was 274 nM.

Question: What about the “apparent KD of K4 kissing-loop reporter” value [2] of the same sequence?
Answer: The value was 200 nM.

Question: With “GCAGGACGAGGAGGAGGAUGAAUUACUGAAGGAGCGCAUAUUGUUGCAGGUAGGUCGCGGUAAACAAGUAUAGUGAUGUUAUAUC [SSArgA.O]” as the sequence, how does the “apparent KD of K4 kissing-loop reporter” value (input ligand: FMN 200 uM) read?
Answer: The value was 770 nM.

Question: What about the “apparent KD of K4 kissing-loop reporter” value (input ligand: arginine 13.2 mM) of the same sequence?
Answer: Its value is 270 nM.

Question: And the “apparent KD of K4 kissing-loop reporter” value (input ligand: none)?
Answer: Its value is 877 nM.

Question: What about the “apparent KD of K4 kissing-loop reporter” value [1] of the same sequence?
Answer: The value was 695 nM.

Question: And the “apparent KD of K4 kissing-loop reporter” value [2]?
Answer: The value was 416 nM.

Question: What does the source list for “GCAGGACGAGGAGGAGGAUGAAUUACUGAAGGAGCGCAUAUUUUUGCAGGUAGGUCGCGGUAAACAAGUAUAGUGAUGUUAUAUC [SSArgA.N]”?
Answer: apparent KD of K4 kissing-loop reporter (input ligand: FMN 200 uM): 445 nM; apparent KD of K4 kissing-loop reporter (input ligand: arginine 13.2 mM): 234 nM; apparent KD of K4 kissing-loop reporter (input ligand: none): 372 nM; apparent KD of K4 kissing-loop reporter [1]: 459 nM; apparent KD of K4 kissing-loop reporter [2]: 442 nM

Question: For “GCAGGAUAGCGCGGUGCAGUGAUGUUGCACCGAGGACCGGUACGGCCGCCACUCGCUUAGAUAUCGUGUGAUGGGUAUGUCUAGA [theeternabot_exclusion_KL_Trp_A_8]”, which “apparent KD of K4 kissing-loop reporter” value (input ligand: FMN 200 uM) is on record?
Answer: The value was 116 nM.

Question: And the “apparent KD of K4 kissing-loop reporter” value (input ligand: arginine 13.2 mM)?
Answer: Its value is 110 nM.

Question: What about the “apparent KD of K4 kissing-loop reporter” value (input ligand: none) of the same sequence?
Answer: The value was 123 nM.

Question: What about the “apparent KD of K4 kissing-loop reporter” value [1] of the same sequence?
Answer: The value was 94 nM.

Question: And the “apparent KD of K4 kissing-loop reporter” value [2]?
Answer: The value was 119 nM.

Question: How did the “apparent KD of K4 kissing-loop reporter” value (input ligand: FMN 200 uM) turn out when “GCAGUGAUGUUGCGCGAGUACGGUAGAGUACGAGGACCGGUACGGCCGCCACUCGUACGGAACUGGCUAAUUUAUGGAAUGGUGA [III]” was run?
Answer: The value was 254 nM.

Question: And the “apparent KD of K4 kissing-loop reporter” value (input ligand: arginine 13.2 mM)?
Answer: Its value is 227 nM.

Question: And the “apparent KD of K4 kissing-loop reporter” value (input ligand: none)?
Answer: The value was 295 nM.

Question: What about the “apparent KD of K4 kissing-loop reporter” value [1] of the same sequence?
Answer: Its value is 270 nM.

Question: And the “apparent KD of K4 kissing-loop reporter” value [2]?
Answer: The value was 193 nM.

Question: What does the source list for “GCAGUGAUGUUGCGCGGGUACGGUAGAGUACGAGGACCGGUACGGCCGCCACUCGUACGGAACUGGCUAAUUUAUGGAAUGGUGA [IV]”?
Answer: apparent KD of K4 kissing-loop reporter (input ligand: FMN 200 uM): 377 nM; apparent KD of K4 kissing-loop reporter (input ligand: arginine 13.2 mM): 198 nM; apparent KD of K4 kissing-loop reporter (input ligand: none): 313 nM; apparent KD of K4 kissing-loop reporter [1]: 350 nM; apparent KD of K4 kissing-loop reporter [2]: 213 nM

Question: Which “apparent KD of K4 kissing-loop reporter” value (input ligand: FMN 200 uM) does the source give for “GCAUGAUAGUAAGGAUAUAGAUAAUCCUUAUAUAUAUCGAGUGAUGUUCGAUGUGCCAAGGUACAUCUAGAAGGUACUGUAAGGU [Same State FMN B GF 17]” here?
Answer: The value was 265 nM.

Question: And the “apparent KD of K4 kissing-loop reporter” value (input ligand: arginine 13.2 mM)?
Answer: The value was 288 nM.

Question: And the “apparent KD of K4 kissing-loop reporter” value (input ligand: none)?
Answer: The value was 257 nM.

Question: What about the “apparent KD of K4 kissing-loop reporter” value [1] of the same sequence?
Answer: Its value is 355 nM.

Question: What about the “apparent KD of K4 kissing-loop reporter” value [2] of the same sequence?
Answer: The value was 239 nM.

Question: For “GCCAGUGAUGUUGGCGAACCAACGCAUGCAGAGGAUAUUCGUUCUGGAAGAAGGCUGCAGCGUUAUCAAACGCAGUGAUGUUGCG [Same State FMN A GF 26]”, which “apparent KD of K4 kissing-loop reporter” value (input ligand: FMN 200 uM) is on record?
Answer: Its value is 179 nM.

Question: And the “apparent KD of K4 kissing-loop reporter” value (input ligand: arginine 13.2 mM)?
Answer: The value was 134 nM.

Question: And the “apparent KD of K4 kissing-loop reporter” value (input ligand: none)?
Answer: The value was 150 nM.

Question: What about the “apparent KD of K4 kissing-loop reporter” value [1] of the same sequence?
Answer: The value was 165 nM.

Question: What about the “apparent KD of K4 kissing-loop reporter” value [2] of the same sequence?
Answer: The value was 129 nM.

Question: For “GCCGUACGCAUGGAUACCAGACUACCAUUGGAAACAAUGUGUCCGGUAGUGAUGUUACCUGUCCCUUGGCAGCCAUGCGUACGGC”, which “apparent KD of K4 kissing-loop reporter” value (input ligand: FMN 200 uM) is on record?
Answer: The value was 649 nM.

Question: What about the “apparent KD of K4 kissing-loop reporter” value (input ligand: arginine 13.2 mM) of the same sequence?
Answer: Its value is 549 nM.

Question: What about the “apparent KD of K4 kissing-loop reporter” value (input ligand: none) of the same sequence?
Answer: The value was 702 nM.

Question: And the “apparent KD of K4 kissing-loop reporter” value [1]?
Answer: Its value is 396 nM.

Question: And the “apparent KD of K4 kissing-loop reporter” value [2]?
Answer: The value was 655 nM.

Question: For “GCCGUACGCAUGGAUACCAGUCAAGAUCAGUGAUGUUGAUCUUUUAUAGAGCCUACAUUUGACCCUUGGCAGCCAUGCGUACGGC”, which “apparent KD of K4 kissing-loop reporter” value (input ligand: FMN 200 uM) is on record?
Answer: The value was 378 nM.

Question: And the “apparent KD of K4 kissing-loop reporter” value (input ligand: arginine 13.2 mM)?
Answer: The value was 320 nM.

Question: And the “apparent KD of K4 kissing-loop reporter” value (input ligand: none)?
Answer: The value was 330 nM.

Question: And the “apparent KD of K4 kissing-loop reporter” value [1]?
Answer: The value was 465 nM.

Question: And the “apparent KD of K4 kissing-loop reporter” value [2]?
Answer: Its value is 247 nM.

Question: What does the source list for “GCCGUACGCAUGGAUACCAGUCUACAUCGCAGUGAUGUUGCGUAGUUCAGAUAGAUUGCCGACCCUUGGCAGCCAUGCGUACGGC”?
Answer: apparent KD of K4 kissing-loop reporter (input ligand: FMN 200 uM): 133 nM; apparent KD of K4 kissing-loop reporter (input ligand: arginine 13.2 mM): 109 nM; apparent KD of K4 kissing-loop reporter (input ligand: none): 111 nM; apparent KD of K4 kissing-loop reporter [1]: 109 nM; apparent KD of K4 kissing-loop reporter [2]: 114 nM

Question: With “GCCGUACGCAUGGAUACCAGUCUACAUCGCAGUGAUGUUGCGUAGUUCAGAUUAACUGCCGACCCUUGGCAGCCAUGCGUACGGC” as the sequence, how does the “apparent KD of K4 kissing-loop reporter” value (input ligand: FMN 200 uM) read?
Answer: Its value is 134 nM.

Question: And the “apparent KD of K4 kissing-loop reporter” value (input ligand: arginine 13.2 mM)?
Answer: The value was 111 nM.

Question: And the “apparent KD of K4 kissing-loop reporter” value (input ligand: none)?
Answer: The value was 127 nM.

Question: What about the “apparent KD of K4 kissing-loop reporter” value [1] of the same sequence?
Answer: The value was 118 nM.

Question: What about the “apparent KD of K4 kissing-loop reporter” value [2] of the same sequence?
Answer: The value was 120 nM.

Question: Which results are given for “GCCGUACGCAUGGAUACCAGUCUUUCGCGACUGGACAUGGAGUGAUGUUUCGUGAUGCUAGACCCUUGGCAGCCAUGCGUACGGC”?
Answer: apparent KD of K4 kissing-loop reporter (input ligand: FMN 200 uM): 233 nM; apparent KD of K4 kissing-loop reporter (input ligand: arginine 13.2 mM): 163 nM; apparent KD of K4 kissing-loop reporter (input ligand: none): 206 nM; apparent KD of K4 kissing-loop reporter [1]: 234 nM; apparent KD of K4 kissing-loop reporter [2]: 201 nM

— the supplement of paper PMC9170038
